From patent publication US20240310359A1

Biological target: SERCA1a, mouse (endogenous, differentiated skeletal muscle cells) (mouse) (UniProt Q8R429)
Assay: cell-based or functional assay

Chain of SERCA1a, mouse (endogenous, differentiated skeletal muscle cells) (mouse) (Q8R429 whole entry): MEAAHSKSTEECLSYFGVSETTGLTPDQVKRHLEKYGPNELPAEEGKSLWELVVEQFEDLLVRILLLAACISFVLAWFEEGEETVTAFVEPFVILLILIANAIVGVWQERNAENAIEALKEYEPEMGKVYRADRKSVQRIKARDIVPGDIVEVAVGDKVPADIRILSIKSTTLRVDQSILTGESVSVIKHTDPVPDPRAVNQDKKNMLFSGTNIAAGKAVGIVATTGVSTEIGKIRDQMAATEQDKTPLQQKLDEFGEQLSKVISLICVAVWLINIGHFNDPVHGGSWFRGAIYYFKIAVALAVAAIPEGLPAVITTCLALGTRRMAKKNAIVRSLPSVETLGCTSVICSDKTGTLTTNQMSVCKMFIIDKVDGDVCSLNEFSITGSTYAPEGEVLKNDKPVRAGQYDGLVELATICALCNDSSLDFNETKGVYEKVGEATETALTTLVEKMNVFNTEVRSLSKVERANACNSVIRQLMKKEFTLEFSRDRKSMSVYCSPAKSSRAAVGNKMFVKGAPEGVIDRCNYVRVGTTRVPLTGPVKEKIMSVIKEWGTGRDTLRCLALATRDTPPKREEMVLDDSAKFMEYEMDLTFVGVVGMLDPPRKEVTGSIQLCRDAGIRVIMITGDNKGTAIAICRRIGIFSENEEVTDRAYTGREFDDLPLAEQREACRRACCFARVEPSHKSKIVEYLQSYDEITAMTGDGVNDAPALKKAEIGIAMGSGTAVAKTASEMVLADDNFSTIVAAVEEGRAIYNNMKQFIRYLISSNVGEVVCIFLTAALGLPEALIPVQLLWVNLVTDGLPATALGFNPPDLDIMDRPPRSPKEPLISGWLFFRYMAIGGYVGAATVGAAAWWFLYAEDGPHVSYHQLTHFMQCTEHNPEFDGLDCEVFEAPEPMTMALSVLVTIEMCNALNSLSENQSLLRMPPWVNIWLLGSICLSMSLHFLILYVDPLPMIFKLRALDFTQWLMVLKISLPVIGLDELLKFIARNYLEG
Chain of NHL-Del (mutant of TRIM32 without NHL repeats, expressed from pEGFP-N1 in mouse differentiated skeletal muscle cells) (Q13049 1-361, stated change not applied): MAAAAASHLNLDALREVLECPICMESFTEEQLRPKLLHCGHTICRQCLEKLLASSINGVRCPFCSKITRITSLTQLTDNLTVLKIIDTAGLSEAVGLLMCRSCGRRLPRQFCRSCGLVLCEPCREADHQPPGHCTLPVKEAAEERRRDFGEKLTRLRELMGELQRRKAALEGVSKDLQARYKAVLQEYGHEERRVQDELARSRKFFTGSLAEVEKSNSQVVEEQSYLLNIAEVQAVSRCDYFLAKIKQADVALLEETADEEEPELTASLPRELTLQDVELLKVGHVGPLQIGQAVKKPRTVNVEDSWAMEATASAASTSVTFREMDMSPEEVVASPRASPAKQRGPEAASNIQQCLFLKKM
Chain of wild-type TRIM32 (expressed from pEGFP-N1 in mouse differentiated skeletal muscle cells) (from UniProt Q13049 1-653) (enzyme) (Q13049 whole entry): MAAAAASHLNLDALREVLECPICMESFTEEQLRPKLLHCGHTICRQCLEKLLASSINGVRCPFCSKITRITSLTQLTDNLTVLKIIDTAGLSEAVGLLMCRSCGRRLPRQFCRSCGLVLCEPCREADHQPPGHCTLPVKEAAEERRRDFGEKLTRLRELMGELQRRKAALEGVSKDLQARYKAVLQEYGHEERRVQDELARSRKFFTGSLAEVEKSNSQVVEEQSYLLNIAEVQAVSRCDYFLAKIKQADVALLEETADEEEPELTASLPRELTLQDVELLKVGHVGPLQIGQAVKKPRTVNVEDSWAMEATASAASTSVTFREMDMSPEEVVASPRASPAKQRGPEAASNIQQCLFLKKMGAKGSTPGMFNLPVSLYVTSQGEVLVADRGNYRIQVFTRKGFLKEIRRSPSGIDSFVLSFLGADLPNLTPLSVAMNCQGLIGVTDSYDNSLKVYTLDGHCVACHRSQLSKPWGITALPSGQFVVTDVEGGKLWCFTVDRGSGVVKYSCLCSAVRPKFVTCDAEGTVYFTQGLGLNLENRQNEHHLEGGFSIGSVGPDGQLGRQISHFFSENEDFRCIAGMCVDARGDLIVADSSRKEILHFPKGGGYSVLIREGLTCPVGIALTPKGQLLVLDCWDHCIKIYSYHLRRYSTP
Chain of wild-type TRIM32 (expressed from pEGFP-N1 in mouse differentiated skeletal muscle cells) (from UniProt Q13049 1-653) (Q13049 whole entry): as above

Substance	Caffeine response (normalized ratio to vector control)	KCl response (normalized ratio to vector control)	Releasable Ca^2+ level from SR (normalized ratio to vector control)
NHL-Del (mutant of TRIM32 without NHL repeats, expressed from pEGFP-N1 in mouse differentiated skeletal muscle cells) (from UniProt Q13049 1-361) (enzyme)	0.97	0.94	0.99
wild-type TRIM32 (expressed from pEGFP-N1 in mouse differentiated skeletal muscle cells) (from UniProt Q13049 1-653)	1.22		
wild-type TRIM32 (expressed from pEGFP-N1 in mouse differentiated skeletal muscle cells) (from UniProt Q13049 1-653) (enzyme)		1.27	1.48
